From PMC3424240, “Rbm15-Mkl1 Interacts with the Setd1b Histone H3-Lys4 Methyltransferase via a SPOC Domain That Is Required for Cytokine-Independent Proliferation” (PLoS ONE, 2012)

Molecular target: T1, His-SPOC domain (aa 782–977 of Rbm15) (human, UniProt Q96T37 782-977)
T1 construct: cloned in the pBAD/His vector; also called His-tagged Rbm15 SPOC domain; source: E. coli, purified (Ni-NTA agarose), dialyzed against PBS
T1 sequence (looked up): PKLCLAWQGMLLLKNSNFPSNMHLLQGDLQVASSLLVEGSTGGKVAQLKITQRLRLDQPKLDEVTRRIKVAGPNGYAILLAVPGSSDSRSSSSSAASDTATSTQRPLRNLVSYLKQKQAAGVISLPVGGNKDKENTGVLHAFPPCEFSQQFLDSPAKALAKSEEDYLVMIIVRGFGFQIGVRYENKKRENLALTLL
Assay: pull-down; GST pull-down of purified proteins on glutathione-agarose; 20 mM Tris-HCl pH 8.0, 150 mM NaCl, 2 mM EDTA, 0.2% NP-40, 0.5% deoxycholate; 2 h, then beads 1 h; Western blotting and Coomassie staining
Details: both partners purified

binding result: binds
B1: GST-LSD (aa 542–628 of Setd1b) (domain or fragment, human, UniProt Q9UPS6 542-628, looked up)
chain: PLAPFGTNSQPGFRGPTPPSSRPSSTGLEDISPTPLPDSDEDEELDLGLGPRPPPEPGPPDPAGLLSQTAEVALDLVGDRTPTSEKM
notes: human Setd1b LSD domain, residues 542-628; cloned in the pGEX 4T vector; also called GST-Setd1b LSD domain; source: E. coli, purified
